Earlier results in US20180140739A1, “HAEMOSTATIC DEVICE” (HAEMOSTATIX LIMITED, priority 2015, published 2018).

Target: T1, fibrinogen hole 'a' and hole 'b' (Homo sapiens, UniProt P02675+P02679)
T1 sequence (P02679 27-433 limits assumed): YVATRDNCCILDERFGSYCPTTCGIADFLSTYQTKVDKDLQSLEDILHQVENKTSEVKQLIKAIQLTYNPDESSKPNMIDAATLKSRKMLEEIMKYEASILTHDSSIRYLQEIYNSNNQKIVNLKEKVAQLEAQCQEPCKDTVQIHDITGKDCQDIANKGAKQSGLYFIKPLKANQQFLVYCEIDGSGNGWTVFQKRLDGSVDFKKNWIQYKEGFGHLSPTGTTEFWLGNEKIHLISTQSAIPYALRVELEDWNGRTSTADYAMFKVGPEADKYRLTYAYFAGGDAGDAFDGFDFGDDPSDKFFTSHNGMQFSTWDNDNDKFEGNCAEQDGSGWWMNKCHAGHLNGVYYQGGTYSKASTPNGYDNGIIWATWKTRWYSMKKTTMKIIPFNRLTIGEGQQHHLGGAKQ
T1 sequence (P02675 31-491): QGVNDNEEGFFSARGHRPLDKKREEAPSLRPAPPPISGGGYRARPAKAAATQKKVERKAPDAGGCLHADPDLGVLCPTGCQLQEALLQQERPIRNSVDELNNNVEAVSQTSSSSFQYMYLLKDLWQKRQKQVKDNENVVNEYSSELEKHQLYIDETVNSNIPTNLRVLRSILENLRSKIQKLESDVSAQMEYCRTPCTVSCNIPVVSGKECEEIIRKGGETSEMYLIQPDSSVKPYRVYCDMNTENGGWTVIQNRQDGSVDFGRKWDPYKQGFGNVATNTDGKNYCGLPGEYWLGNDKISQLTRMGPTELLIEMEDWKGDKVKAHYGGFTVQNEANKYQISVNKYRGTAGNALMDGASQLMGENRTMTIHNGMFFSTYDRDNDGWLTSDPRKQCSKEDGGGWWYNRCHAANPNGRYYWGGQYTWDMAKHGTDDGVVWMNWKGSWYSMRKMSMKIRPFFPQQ
T1 sequence (P02671 20-629 partner limits assumed): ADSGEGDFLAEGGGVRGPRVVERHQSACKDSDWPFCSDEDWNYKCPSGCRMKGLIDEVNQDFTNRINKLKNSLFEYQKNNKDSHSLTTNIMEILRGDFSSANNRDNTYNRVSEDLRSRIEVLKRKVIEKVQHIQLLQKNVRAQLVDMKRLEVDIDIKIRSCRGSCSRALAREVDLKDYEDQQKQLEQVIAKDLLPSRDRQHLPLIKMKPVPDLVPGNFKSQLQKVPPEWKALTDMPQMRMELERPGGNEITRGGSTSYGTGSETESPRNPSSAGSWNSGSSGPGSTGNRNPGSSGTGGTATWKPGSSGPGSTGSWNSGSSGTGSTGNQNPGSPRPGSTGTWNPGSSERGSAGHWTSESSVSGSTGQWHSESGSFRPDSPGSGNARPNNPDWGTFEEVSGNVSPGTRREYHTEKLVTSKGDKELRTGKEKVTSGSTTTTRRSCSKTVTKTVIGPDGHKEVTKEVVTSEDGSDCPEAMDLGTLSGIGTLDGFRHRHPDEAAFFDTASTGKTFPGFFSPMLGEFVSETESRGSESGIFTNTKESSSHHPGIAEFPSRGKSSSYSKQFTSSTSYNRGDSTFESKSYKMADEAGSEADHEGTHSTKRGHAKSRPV
Conditions: cited from earlier work

In the case of GPRPFPA (listed as Homo sapiens), the “binding preference for hole 'a' / hole 'b' of fibrinogen” value is listed as “binds with high preference for hole ‘a’ in fibrinogen”.
